From patent publication US20020034767A1, “Compositions and methods for modulating the activity of G protein-coupled receptor kinases GRK5 and GRK6” (priority 1993, published 2002)

Legend:
Assay in all cases: cell-based or functional assay
[1] = target: rhodopsin in urea treated rod outer segments (bovine) (UniProt P02699)
[2] = target: G protein-coupled receptor kinase GRK6 (human) (human) (UniProt P43250)
[3] = target: G protein-coupled receptor kinase GRK5 (human) (human) (UniProt P34947)
Chain of G protein-coupled receptor kinase GRK5 (human) (human) (P34947 whole entry E78G): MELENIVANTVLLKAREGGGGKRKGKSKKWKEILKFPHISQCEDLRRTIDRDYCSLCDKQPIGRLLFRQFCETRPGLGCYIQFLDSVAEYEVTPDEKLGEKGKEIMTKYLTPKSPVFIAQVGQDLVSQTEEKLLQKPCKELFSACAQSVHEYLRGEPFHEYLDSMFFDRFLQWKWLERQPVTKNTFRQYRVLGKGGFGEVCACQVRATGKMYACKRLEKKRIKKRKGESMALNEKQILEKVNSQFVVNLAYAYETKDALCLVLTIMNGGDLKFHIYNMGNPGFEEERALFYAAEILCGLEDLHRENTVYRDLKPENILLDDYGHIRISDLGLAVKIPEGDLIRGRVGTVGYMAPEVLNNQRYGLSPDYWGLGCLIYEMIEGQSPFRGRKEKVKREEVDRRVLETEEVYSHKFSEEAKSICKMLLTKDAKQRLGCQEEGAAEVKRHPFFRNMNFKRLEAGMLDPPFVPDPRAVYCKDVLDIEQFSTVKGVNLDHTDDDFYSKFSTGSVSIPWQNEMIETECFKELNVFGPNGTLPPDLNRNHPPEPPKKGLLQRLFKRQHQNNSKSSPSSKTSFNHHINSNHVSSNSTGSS

Chain of rhodopsin in urea treated rod outer segments (bovine) (P02699 whole entry): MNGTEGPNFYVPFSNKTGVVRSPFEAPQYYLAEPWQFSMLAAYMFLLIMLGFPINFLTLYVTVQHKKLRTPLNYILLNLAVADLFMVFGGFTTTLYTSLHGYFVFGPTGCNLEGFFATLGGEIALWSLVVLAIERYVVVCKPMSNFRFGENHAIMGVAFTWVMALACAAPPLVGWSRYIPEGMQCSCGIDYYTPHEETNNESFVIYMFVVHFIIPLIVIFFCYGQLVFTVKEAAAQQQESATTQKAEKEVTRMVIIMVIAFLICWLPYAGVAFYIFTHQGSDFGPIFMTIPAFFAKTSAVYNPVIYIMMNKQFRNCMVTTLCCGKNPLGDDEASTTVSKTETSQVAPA
Chain of G protein-coupled receptor kinase GRK6 (human) (human) (P43250 other isoform, or with tags, fused parts or gaps limits assumed): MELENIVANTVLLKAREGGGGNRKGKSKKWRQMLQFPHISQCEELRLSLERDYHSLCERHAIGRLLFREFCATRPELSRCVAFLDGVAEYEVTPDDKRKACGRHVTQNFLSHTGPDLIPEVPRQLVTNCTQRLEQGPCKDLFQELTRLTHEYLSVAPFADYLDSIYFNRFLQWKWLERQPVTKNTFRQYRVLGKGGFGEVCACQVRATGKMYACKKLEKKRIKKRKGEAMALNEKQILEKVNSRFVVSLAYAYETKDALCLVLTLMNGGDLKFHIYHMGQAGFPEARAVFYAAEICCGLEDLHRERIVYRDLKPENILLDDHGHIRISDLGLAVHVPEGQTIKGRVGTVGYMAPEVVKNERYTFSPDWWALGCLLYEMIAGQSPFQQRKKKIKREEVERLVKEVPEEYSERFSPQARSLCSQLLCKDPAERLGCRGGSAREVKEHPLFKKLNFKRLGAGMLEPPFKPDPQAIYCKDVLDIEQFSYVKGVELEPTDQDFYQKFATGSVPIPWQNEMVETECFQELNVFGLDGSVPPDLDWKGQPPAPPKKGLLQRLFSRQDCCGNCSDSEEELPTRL

Substance	light-dependent rhodopsin phosphorylation by Sf9 cell supernatant [1]	IC50 of inhibition of kinase activity [2]	fold less effective as inhibitor compared to GRK5 [2]	also measured
G protein-coupled receptor kinase GRK5 (human) (from UniProt P34947 1-590) (enzyme)	1120 pmol/min/mg	–	–	–
G protein-coupled receptor kinase GRK6 (human) (from UniProt P43250 1-576) (enzyme)	–	–	–	specific activity of phosphorylation of bleached rhodopsin by Sf9 cell supernatant (pmol/min/mg protein) [1]: 81
polylysine, a 14-16 amino acid peptide	–	–	–	fold activation of kinase activity [3]: 2.6 fold
β-adrenergic receptor kinase (enzyme)	2470 pmol/min/mg	–	–	–

The next lines start with results.

light-dependent rhodopsin phosphorylation by Sf9 cell supernatant [1]	IC50 of inhibition of kinase activity [2]	fold less effective as inhibitor compared to GRK5 [2]	Substance	also measured
–	487 nM	6 fold	polyaspartic acid (peptide)	–
–	400 nM	16 fold	polyglutamic acid (peptide)	–
